# According to patent publication US20230183331A1:
# Target: IL-2 receptor (IL-2R) on primary pan T-cells from healthy donors (human) (UniProt P01589)
# Assay: cell-based or functional assay
# Sequence of IL-2 receptor (IL-2R) on primary pan T-cells from healthy donors (human) (P01589 22-272, chain 1 of 3): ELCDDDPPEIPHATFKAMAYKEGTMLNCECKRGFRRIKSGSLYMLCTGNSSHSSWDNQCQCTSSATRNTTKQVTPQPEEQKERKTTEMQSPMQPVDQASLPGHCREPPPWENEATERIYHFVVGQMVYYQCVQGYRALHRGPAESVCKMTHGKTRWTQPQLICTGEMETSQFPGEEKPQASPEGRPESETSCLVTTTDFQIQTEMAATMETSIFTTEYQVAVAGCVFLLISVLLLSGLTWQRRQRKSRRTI
# Sequence of IL-2 receptor (IL-2R) on primary pan T-cells from healthy donors (human) (P14784 27-551, chain 2 of 3, further chain): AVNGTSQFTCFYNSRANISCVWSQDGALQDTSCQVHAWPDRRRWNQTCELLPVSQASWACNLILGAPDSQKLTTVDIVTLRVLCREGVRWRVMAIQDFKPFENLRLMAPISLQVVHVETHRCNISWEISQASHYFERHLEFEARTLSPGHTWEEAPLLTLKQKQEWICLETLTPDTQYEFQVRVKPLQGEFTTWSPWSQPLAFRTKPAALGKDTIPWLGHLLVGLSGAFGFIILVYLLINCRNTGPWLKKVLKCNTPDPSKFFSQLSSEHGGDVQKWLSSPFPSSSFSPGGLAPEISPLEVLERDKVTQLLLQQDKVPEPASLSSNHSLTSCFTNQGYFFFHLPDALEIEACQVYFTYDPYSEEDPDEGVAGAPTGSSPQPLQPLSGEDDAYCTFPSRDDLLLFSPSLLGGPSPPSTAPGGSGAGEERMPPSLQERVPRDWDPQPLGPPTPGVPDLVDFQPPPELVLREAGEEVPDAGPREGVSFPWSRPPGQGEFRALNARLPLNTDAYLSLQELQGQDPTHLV
# Sequence of IL-2 receptor (IL-2R) on primary pan T-cells from healthy donors (human) (P31785 23-369, chain 3 of 3, further chain): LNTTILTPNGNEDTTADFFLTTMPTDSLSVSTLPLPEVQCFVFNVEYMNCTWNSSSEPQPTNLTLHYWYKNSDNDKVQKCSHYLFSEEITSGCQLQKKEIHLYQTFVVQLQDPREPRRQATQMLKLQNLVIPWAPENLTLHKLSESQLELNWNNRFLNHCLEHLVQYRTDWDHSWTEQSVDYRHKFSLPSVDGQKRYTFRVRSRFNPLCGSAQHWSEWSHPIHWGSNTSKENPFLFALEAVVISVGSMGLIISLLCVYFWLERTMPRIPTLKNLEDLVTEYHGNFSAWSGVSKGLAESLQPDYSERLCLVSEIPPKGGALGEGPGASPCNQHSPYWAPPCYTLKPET
substance,measurement,value
Aldesleukin (from UniProt P60568 22-153) (ligand),"CD8 EC50 (nM), STAT5 phosphorylation",9.07 nM
same,"CD8 naïve EC50 (nM), STAT5 phosphorylation",477 nM
same,"Treg EC50 (nM), STAT5 phosphorylation",0.019 nM
